This passage reports Kd results from PMC3362647.

By Kd is commonly meant the free concentration of one partner at which half of the binding sites on the other are occupied at equilibrium, for simple one-to-one binding. Read a high Kd as a looser complex.

For the series, the system named is GST-p180-Lys (p180 lysine-rich region). Description: EMSA. The note with it: PBS with 10 ug/ml denatured yeast tRNA, room temperature, 20 min; native 10% PAGE (19:1) in TBE; pH not stated. On the technique in general: In EMSA bound probe runs differently from free probe, usually more slowly.

In the case of human insulin SSCR RNA, the dissociation constant Kd worked out at 800 nM.
